Columns and labels:
[1] = molecular target: Acinetobacter baumannii RNase E N-terminal catalytic domain (Acinetobacter baumannii); experiment: SEC
[2] = molecular target: Acinetobacter baumannii RNase E N-terminal catalytic domain (Acinetobacter baumannii); experiment: SEC-SAXS; 5-10 mg/ml protein in 10 mM DTT, 10 mM MgCl2, 0.5 M NaCl, 20 mM Tris pH 8; KW403-4F size-exclusion column, B21 beamline (Diamond Light Source); molecular mass from I(0)
[3] = molecular target: Francisella tularensis RNase E N-terminal catalytic domain (Francisella tularensis) (UniProt Q5NFK7); experiment: SEC
[4] = molecular target: Francisella tularensis RNase E N-terminal catalytic domain (Francisella tularensis) (UniProt Q5NFK7); experiment: SEC-SAXS
[5] = molecular target: Yersinia pestis RNase E N-terminal catalytic domain (Yersinia pestis); experiment: SEC
[6] = molecular target: Yersinia pestis RNase E N-terminal catalytic domain (Yersinia pestis); experiment: SEC-SAXS

## Acinetobacter baumannii RNase E N-terminal catalytic domain (domain or fragment)
[1]
  stoichiometry N: 4
[2]
  stoichiometry N: 4

## Francisella tularensis RNase E N-terminal catalytic domain (from UniProt Q5NFK7 1-543) (domain or fragment)
[3]
  stoichiometry N: 4
[4]
  stoichiometry N: 4

## Yersinia pestis RNase E N-terminal catalytic domain (from UniProt A0AAX2HZU4 1-529) (domain or fragment)
[5]
  stoichiometry N: 4
[6]
  stoichiometry N: 4
